Source: patent publication US11141492B2, “Anticancer combinations” (City of Hope, priority 2013, dated 2021)

Experiments:
[1] = system: vessels within the tumor mass; experiment: Anti-CD31 staining of vessels within the tumor mass; format: in vivo, mice; conditions: 14 day tumors, versus untreated (majority of closed vessels)
From the text: Sections from 14 day tumors of mice untreated or treated with PEGPH20 were stained with anti-CD31 antibody to locate cross sections of vessels within the tumor mass. FITC-conjugated secondary specific to CD31 primary and DAPI staining were visualized by fluorescence microscopy.

hyaluronan = experiment: Hyaluronan staining of KPC-luc tumor sections; format: in vivo, mice; conditions: forty-eight hours after treatment; 14 day orthotopic tumors
KPC-luc tumors = experiment: Orthotopic KPC-luc pancreatic tumor model, intravital imaging (IVIS); format: in vivo, C57BL/6 mice; conditions: PEGPH20 4.5 mg/kg (~90 ug/mouse) i.v. day 7; shIDO-ST 5×10^6 cfu/mouse i.v. day 8 (alone: days 8 and 12); n=3
Method: To determine the effects of shIDO-ST and PEGPH20™, nine C57BL/6 mice were injected orthotopically (in the pancreas) with 5×10^5 KPC-luc cells. Three small groups (n=3) were created: shIDO-ST alone, PEGPH20™ alone, and shIDO-ST with PEGPH20™. The shIDO-ST alone group received shIDO-ST at a dose of 5×10^6 cfu/mouse through intravenous (i.v.) injection on days 8 and 12. PEGPH20™ alone group received PEGPH20™ at a dose of 4.5 mg/kg (˜90 ug/mouse) on day 7 through i.v. injection. The combination (PEGPH20™ with shIDO-ST) group received PEGPH20™ at 4.5 mg/kg on day 7 followed by treatment with shIDO-ST on day 8 at 5×10^6 cfu/mouse. Mice were imaged using an intravital imaging system (IVIS) at indicated time points after tumor cell implantation. […]
Titration of combination treatment with shIDO-ST and PEGPH20™ was performed to reduce the toxicity observed in initial experiment (FIG. 2). […] Photons emitted from mice imaged in FIG. 2 were quantitated using Living Image® software.
Due to the sensitivity of 7 day KPC-luc tumors to the combination PEGPH20™ and […] treatment (FIG. 2), treatment of implanted KPC-luc tumors was delayed to day 14. […] Doses (previously determined from titration studies described in FIG. 2) consisted of 45 ug of PEGPH20™ followed by 5×10^6 cfu/mouse of shIDO-ST or shScr-ST. […] Photons emitted from mice imaged in FIG. 4 were quantitated using Living Image® software. […]

B1: PEGPH20™: pegylated recombinant human hyaluronidase PH-20 (Halozyme, Inc.) (protein, listed as Homo Sapiens)
chain: MGVLKFKHIFFRSFVKSSGVSQIVFTFLLIPCCLTLNFRAPPVIPNVPFLWAWNAPSEFCLGKFDEPLDMSLFSFIGSPRINATGQGVTIFYVDRLGYYPYIDSITGVTVNGGIPQKISLQDHLDKAKKDITFYMPVDNLGMAVIDWEEWRPTWARNWKPKDVYKNRSIELVQQQNVQLSLTEATEKAKQEFEKAGKDFLVETIKLGKLLRPNHLWGYYLFPDCYNHHYKKPGYNGSCFNVEIKRNDDLSWLWNESTALYPSIYLNTQQSPVAATLYVRNRVREAIRVSKIPDAKSPLPVFAYTRIVFTDQVLKFLSQDELVYTFGETVALGASGIVIWGTLSIMRSMKSCLLLDNYMETILNPYIINVTLAAKMCSQVLCQEQGVCIRKNWNSSDYLHLNPDNFAIQLEKGGKFTVRGKPTLEDLEQFSEKFYCSCYSTLSCKEKADVKDTDAVDVCIADGVCIDAFLKPPMETEEPQIFYNASPSTLSATMFIVSILFLIISSVASL
modifications: PEGylated
open vessels in tumors (CD31 staining) [1]: Many more open vessels
hyaluronan in KPC-luc tumor tissue sections (hyaluronan): significant depletion of hyaluronan
tumor growth by IVIS imaging (KPC-luc tumors): euthanized due to significantly large tumors
